Data as given in patent publication EP4792891A2 (LTZ Therapeutics Inc., dated 2026).

Key:
EGFR on DLD-1 cells = EGFR on DLD-1 cells (UniProt P00533); assay: cell-based or functional assay
[1] = molecular target: T1, CD79b on cells (Ramos cells, endogenous B cells) (human, UniProt P40259 29-229); assay: cell-based or functional assay
T1 sequence (looked up): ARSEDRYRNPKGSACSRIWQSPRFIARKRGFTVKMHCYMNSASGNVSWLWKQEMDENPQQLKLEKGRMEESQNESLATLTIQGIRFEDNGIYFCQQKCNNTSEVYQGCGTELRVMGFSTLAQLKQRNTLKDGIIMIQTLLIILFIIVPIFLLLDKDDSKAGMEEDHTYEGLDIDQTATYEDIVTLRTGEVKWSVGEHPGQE

Necitumumab (antibody)
IC50 (nM), DLD-1 cell killing by M0 macrophages (EGFR on DLD-1 cells): 0.0574 nM

B1: CD79b/5C7 (1+1 B) Fc-optimized (bispecific antibody, human IgG1, kappa)
heavy 1: EQQLVETGGGLIQPGGSLRLSCAASGFTINIDYWISWVRQAPGKGLEWIGIIDPGDGTTYFAIWVSGRFTISFDNSKNTVYLQMNSLRAEDTAVYFCVREFSASAYQYDLWGPGTLVTVSSASTKGPSVFPLAPSSKSTSGGTAALGCLVKDYFPEPVTVSWNSGALTSGVHTFPAVLQSSGLYSLSSVVTVPSSSLGTQTYICNVNHKPSNTKVDKKVEPKSCDKTHTCPPCPAPELLAGPSVFLFPPKPKDTLMISRTPEVTCVVVDVSHEDPEVKFNWYVDGVEVHNAKTKPREEQYNSTYRVVSVLTVLHQDWLNGKEYKCKVSNKALPLPEEKTISKAKGQPREPQVYTLPPSRDELTKNQVSLSCAVKGFYPSDIAVEWESNGQPENNYKTTPPVLDSDGSFFLVSKLTVDKSRWQQGNVFSCSVMHEALHNHYTQKSLSLSPGK
heavy 2: DIQMTQSPSSLSASVGDRVTITCQASESVDRNNRLAWFQQKPGKPPKLLIYTTSTLASGVPSRFSGSGSGTDFTLTISSLQPEDVATYYCAGYRGAHTDGDAFGGGTKVEIKGGGGSGGGGSGGGGSGGGGSEQQLVESGGGLVKPGGSLRLSCAASGFSFSRSSYMCWVRQAPGKGLEWIGCLSVGDGHTYYASWAKGRFTISKDSAKNSVYLQMNSLRAEDTAVYFCARAPSYSGDGGHGYDLWGPGTLVTVSSDKTHTCPPCPAPELLAGPSVFLFPPKPKDTLMISRTPEVTCVVVDVSHEDPEVKFNWYVDGVEVHNAKTKPREEQYNSTYRVVSVLTVLHQDWLNGKEYKCKVSNKALPLPEEKTISKAKGQPREPQVYTLPPSRDELTKNQVSLWCLVKGFYPSDIAVEWESNGQPENNYKTTPPVLDSDGSFFLYSKLTVDKSRWQQGNVFSCSVMHEALHNHYTQKSLSLSPGK
light: ELVMTQSPATLSVSPGERATLSCRASEDIENYLAWYQQKPGQPPRLLIYRASTLSSGVPARFSGSGSGTEFTLTISSLQSEDFAVYYCQQGYRNSNVDNPFGGGTKVEIKRTVAAPSVFIFPPSDEQLKSGTASVVCLLNNFYPREAKVQWKVDNALQSGNSQESVTEQDSKDSTYSLSSTLTLSKADYEKHKVYACEVTHQGLSSPVTKSFNRGEC
IC50 (nM), killing of endogenous B cells by PBMCs, Donor 234 [1]: 0.0453 nM

B2: CD79b/5C7 (2+2 B) Fc-optimized (bispecific antibody, human IgG1, kappa)
heavy: EQQLVETGGGLIQPGGSLRLSCAASGFTINIDYWISWVRQAPGKGLEWIGIIDPGDGTTYFAIWVSGRFTISFDNSKNTVYLQMNSLRAEDTAVYFCVREFSASAYQYDLWGPGTLVTVSSASTKGPSVFPLAPSSKSTSGGTAALGCLVKDYFPEPVTVSWNSGALTSGVHTFPAVLQSSGLYSLSSVVTVPSSSLGTQTYICNVNHKPSNTKVDKKVEPKSCDKTHTCPPCPAPELLAGPSVFLFPPKPKDTLMISRTPEVTCVVVDVSHEDPEVKFNWYVDGVEVHNAKTKPREEQYNSTYRVVSVLTVLHQDWLNGKEYKCKVSNKALPLPEEKTISKAKGQPREPQVYTLPPSRDELTKNQVSLTCLVKGFYPSDIAVEWESNGQPENNYKTTPPVLDSDGSFFLYSKLTVDKSRWQQGNVFSCSVMHEALHNHYTQKSLSLSPGGGGGSGGGGSGGGGSDIQMTQSPSSLSASVGDRVTITCQASESVDRNNRLAWFQQKPGKPPKLLIYTTSTLASGVPSRFSGSGSGTDFTLTISSLQPEDVATYYCAGYRGAHTDGDAFGCGTKVEIKGGGGSGGGGSGGGGSGGGGSEQQLVESGGGLVKPGGSLRLSCAASGFSFSRSSYMCWVRQAPGKCLEWIGCLSVGDGHTYYASWAKGRFTISKDSAKNSVYLQMNSLRAEDTAVYFCARAPSYSGDGGHGYDLWGPGTLVTVSS
light: B1 light
IC50 (nM), killing of endogenous B cells by PBMCs, Donor 367 [1]: 0.0168 nM | IC50 (nM), killing of endogenous B cells by PBMCs, Donor 431 [1]: 0.0168 nM
